Test results taken from US20050032692A1 (BOARD OF TRUSTEES OF THE UNIVERSITY OF ILLINOIS, published 2005).

Experiments:
[1] = biological target: Cdk2 protein (UniProt P24941 1-298); experiment: Co-IP from transfected U2OS extracts with Cdk2 antibody, Western blot with T7 tag antibody
[2] = biological target: T1, GFP-FoxM1B 1-688 protein (human, UniProt Q08050 1-703); experiment: Co-IP from transfected U2OS extracts
T1 construct: C-terminal truncation; construction not described; not shown: GFP
T1 sequence: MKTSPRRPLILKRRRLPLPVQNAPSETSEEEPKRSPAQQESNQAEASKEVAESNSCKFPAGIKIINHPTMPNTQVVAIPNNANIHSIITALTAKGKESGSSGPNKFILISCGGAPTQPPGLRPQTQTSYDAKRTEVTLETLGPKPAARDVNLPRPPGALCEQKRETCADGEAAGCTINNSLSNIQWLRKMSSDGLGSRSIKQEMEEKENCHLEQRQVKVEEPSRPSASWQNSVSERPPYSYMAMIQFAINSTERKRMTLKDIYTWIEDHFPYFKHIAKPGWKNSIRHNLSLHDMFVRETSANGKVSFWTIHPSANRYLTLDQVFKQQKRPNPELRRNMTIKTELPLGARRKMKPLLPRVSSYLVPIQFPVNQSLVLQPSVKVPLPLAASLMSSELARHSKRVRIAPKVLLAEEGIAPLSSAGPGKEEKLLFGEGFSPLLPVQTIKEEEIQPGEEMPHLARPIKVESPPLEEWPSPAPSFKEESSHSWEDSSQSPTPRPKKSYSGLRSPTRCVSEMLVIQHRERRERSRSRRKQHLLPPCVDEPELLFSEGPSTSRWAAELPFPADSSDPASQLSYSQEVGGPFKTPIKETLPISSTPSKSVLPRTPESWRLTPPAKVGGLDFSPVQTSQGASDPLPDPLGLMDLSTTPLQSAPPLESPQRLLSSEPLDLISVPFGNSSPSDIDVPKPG

B1: CMV T7-FoxM1B L641A mutant protein (other, not shown: small tags and cut ends)
chain: MKTSPRRPLILKRRRLPLPVQNAPSETSEEEPKRSPAQQESNQAEASKEVAESNSCKFPAGIKIINHPTMPNTQVVAIPNNANIHSIITALTAKGKESGSSGPNKFILISCGGAPTQPPGLRPQTQTSYDAKRTEVTLETLGPKPAARDVNLPRPPGALCEQKRETCADGEAAGCTINNSLSNIQWLRKMSSDGLGSRSIKQEMEEKENCHLEQRQVKVEEPSRPSASWQNSVSERPPYSYMAMIQFAINSTERKRMTLKDIYTWIEDHFPYFKHIAKPGWKNSIRHNLSLHDMFVRETSANGKVSFWTIHPSANRYLTLDQVFKQQKRPNPELRRNMTIKTELPLGARRKMKPLLPRVSSYLVPIQFPVNQSLVLQPSVKVPLPLAASLMSSELARHSKRVRIAPKVLLAEEGIAPLSSAGPGKEEKLLFGEGFSPLLPVQTIKEEEIQPGEEMPHLARPIKVESPPLEEWPSPAPSFKEESSHSWEDSSQSPTPRPKKSYSGLRSPTRCVSEMLVIQHRERRERSRSRRKQHLLPPCVDEPELLFSEGPSTSRWAAELPFPADSSDPASQLSYSQEVGGPFKTPIKETLPISSTPSKSVLPRTPESWRLTPPAKVGGLDFSPVQTSQGASDPLPDPLGAMDLSTTPLQSAPPLESPQRLLSSEPLDLISVPFGNSSPSDIDVPKPGSPEPQVSGLAANRSLTEGLVLDTMNDSLSKILLDISFPGLDEDPLGPDNINWSQFIPELQ
notes: also called CMV FoxM1B L641A
[1]
  binding result: no binding

B2: HA-p19^ARF protein, wild type (other, UniProt Q64364 1-169, looked up, not shown: small tags and cut ends)
chain: MGRRFLVTVRIQRAGRPLQERVFLVKFVRSRRPRTASCALAFVNMLLRLERILRRGPHRNPGPGDDDGQRSRSSSSAQLRCRFELRGPHYLLPPGARRSAGRLPGHAGGAARVRGSAGCARCLGSPAARLGPRAGTSRHRAIFAFRWVLFVFRWVVFVYRWERRPDRRA
notes: also called HA tagged p19; WT p19
[2]
  binding result: no binding
